{"source": "patent US20110257102A1", "about": "(CASE WESTERN RESERVE UNIVERSITY, published 2011)", "molecules": {"B1": {"name": "GST-tagged FLNa domain 17 (other)", "chain": "DYVNCGHVTAYGPGLTHGVVNKPATFTVNTKDAGEGGLSLAIEGPSKAEISCTDNQDGTCSVSYLPVLPGDYSILVKYNEQHVPGSPFTA", "notes": "domain: domain 17"}, "B2": {"name": "GST-tagged FLNa domain 22 (other)", "chain": "SPSGDARRLTVSSLQESGLKVNQPASFAVSLNGAKGAIDAKVHSPSGALEECYVTEIDQDKYAVRFIPRENGVYLIDVKFNGTHIPGSPFKIRV", "notes": "domain: domain 22"}, "B3": {"name": "GST-tagged FLNa domain 11 (other)", "chain": "EPAVDTSGVQCYGPGIEGQGVFREATTEFSVDARALTQTGGPHVKARVANPSGNLTETYVQDRGDGMYKVEYTPYEEGLHSVDVTYDGSPVPSSPFQVPV", "notes": "domain: domain 11"}, "B4": {"name": "GST-tagged FLNa domain 19 (other)", "chain": "SEIGDASRVRVSGQGLHEGHTFEPAEFIIDTRDAGYGGLSLSIEGPSKVDINTEDLEDGTCRVTYCPTEPGNYIINIKFADQHVPGSPFS", "notes": "domain: domain 19"}, "B5": {"name": "GST-tagged FLNa domain 20 (other)", "chain": "VKVTGEGRVKESITRRRRAPSVANVGSHCDLSLKIPEISIQDMTAQVTSPSGKTHEAEIVEGENHTYCIRFVPAEMGTHTVSVKYKGQHVPGSPFQFTV", "notes": "domain: domain 20"}, "B6": {"name": "GST-tagged FLNa domain 18 (other)", "chain": "RVTGDDSMRMSHLKVGSAADIPINISETDLSLLTATVVPPSGREEPCLLKRLRNGHVGISFVPKETGEHLVHVKKNGQHVASSPIPVVI", "notes": "domain: domain 18"}, "B7": {"name": "GST-tagged FLNa domain 10 (other)", "chain": "VPCFDASKVKCSGPGLERATAGEVGQFQVDCSSAGSAELTIEICSEAGLPAEVYIQDHGDGTHTITYIPLCPGAYTVTIKYGGQPVPNFPSKLQV", "notes": "domain: domain 10"}, "B8": {"name": "GST-tagged FLNa domain 21 (other)", "chain": "LGEGGAHKVRAGGPGLERAEAGVPAEFSIWTREAGAGGLAIAVEGPSKAEISFEDRKDGSCGVAYVVQEPGDYEVSVKFNEEHIPDSPFVVPV", "notes": "domain: domain 21"}, "B9": {"name": "GST-tagged FLNa domain 24 (other)", "chain": "PGPADASKVVAKGLGLSKAYVGQKSSFTVDCSKAGNNMLLVGVHGPRTPCEEILVKHVGSRLYSVSYLLKDKGEYTLVVKWGDEHIPGSPYRVVVP", "notes": "domain: domain 24"}, "B10": {"name": "GST-tagged FLNa domain 23 (other)", "chain": "GHGGDPGLVSAYGAGLEGGVTGNPAEFVVNTSNAGAGALSVTIDGPSKVKMDCQECPEGYRVTYTPMAPGSYLISIKYGGPYHIGGSPFKAKV", "notes": "domain: domain 23"}}, "note": "Where “and” joins values, the source holds several entries; their conditions need not be identical. Equal values may be shown once.", "data": [{"target": "recombinant pro-PrP^23-253 (human, UniProt P04156 23-253)", "assay": "in vitro pull-down with mAb 8H4 and protein G beads, anti-GST immunoblot", "values": [{"molecule": "B1", "binding result": "binds"}, {"molecule": "B2", "binding result": "no binding"}, {"molecule": "B3", "binding result": "no binding"}, {"molecule": "B4", "binding result": "no binding"}, {"molecule": "B5", "binding result": "binds"}, {"molecule": "B6", "binding result": "binds"}, {"molecule": "B7", "binding result": "binds"}, {"molecule": "B8", "binding result": "binds"}, {"molecule": "B9", "binding result": "no binding"}, {"molecule": "B10", "binding result": "binds"}]}, {"target": "filamin A (FLNa) of human tumour cell lines (endogenous) (human) (UniProt P21333)", "assay": "cell-based or functional assay", "values": [{"molecule": "KKRPK-PrP-GPI-PSS synthetic peptide", "inhibition of cellular motility of A7 cells (wound-healing assay)": "50% and 60%"}]}]}
